T1: human VEGFC (R&D) (human, UniProt P49767 103-227)
T1 construct: also called hVEGFC; recombinant human VEGFC protein
T1 sequence (looked up): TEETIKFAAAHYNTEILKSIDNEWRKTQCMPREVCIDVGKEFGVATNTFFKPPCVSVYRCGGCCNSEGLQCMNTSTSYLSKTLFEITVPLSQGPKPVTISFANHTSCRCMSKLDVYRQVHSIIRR

T2: human Ang2 (Beijing Sino Biological) (human, UniProt O15123 19-496, limits assumed)
T2 construct: Antigen of the BLI and SPR experiments; also called angiopoietin 2; ANGPT2
T2 sequence (looked up): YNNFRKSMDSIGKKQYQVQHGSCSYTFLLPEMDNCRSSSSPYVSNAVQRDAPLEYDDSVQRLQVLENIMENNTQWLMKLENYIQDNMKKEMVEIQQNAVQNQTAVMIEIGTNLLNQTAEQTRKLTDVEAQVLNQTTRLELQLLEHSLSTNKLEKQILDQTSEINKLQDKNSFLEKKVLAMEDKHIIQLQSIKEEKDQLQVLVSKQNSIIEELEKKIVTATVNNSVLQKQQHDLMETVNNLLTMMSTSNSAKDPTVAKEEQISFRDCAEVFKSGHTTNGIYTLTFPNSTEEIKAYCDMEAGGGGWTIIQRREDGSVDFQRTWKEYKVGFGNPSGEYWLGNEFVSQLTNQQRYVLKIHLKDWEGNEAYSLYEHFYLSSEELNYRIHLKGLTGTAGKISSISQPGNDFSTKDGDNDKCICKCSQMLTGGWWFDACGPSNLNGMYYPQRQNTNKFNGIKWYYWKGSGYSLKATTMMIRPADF


Tests used:
[1] = molecular target: T3, human VEGF165 (R&D) (human, UniProt P15692-4 27-191); test: BLI (ForteBio), bivalent binding, 30 C
T3 construct: also called VEGFA; human VEGFA
T3 sequence (P15692 other isoform, or with tags, fused parts or gaps limits assumed): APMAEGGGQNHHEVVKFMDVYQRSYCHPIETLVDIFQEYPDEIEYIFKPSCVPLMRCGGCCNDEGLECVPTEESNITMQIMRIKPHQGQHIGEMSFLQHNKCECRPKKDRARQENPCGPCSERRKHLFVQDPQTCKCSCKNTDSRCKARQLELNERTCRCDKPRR

[2] = molecular target: T1, human VEGFC (R&D); test: BLI (ForteBio), bivalent binding, 30 C
[3] = molecular target: T2, human Ang2 (Beijing Sino Biological); test: BLI (ForteBio), bivalent binding, 30 C
[4] = molecular target: T1, human VEGFC (R&D); test: BLI (ForteBio), bivalent binding, 30 C; * beyond the limit of detection
[5] = molecular target: T3, human VEGF165 (R&D); test: as above
[6] = molecular target: T2, human Ang2 (Beijing Sino Biological); test: SPR (Biacore T200), CM5 chip, bivalent binding, 1:1 binding model
[7] = molecular target: T1, human VEGFC (R&D); test: as above
[8] = molecular target: T2, human Ang2 (Beijing Sino Biological); test: BLI (ForteBio), bivalent binding, 30 C; * beyond the limit of detection
[9] = molecular target: T3, human VEGF165 (R&D); test: SPR (Biacore T200), CM5 chip, 1:1 binding model

Binder	Kd [1]	koff [1]	kon [1]	Kd [2]	koff [2]	kon [2]	Kd [3]	koff [3]	kon [3]	koff [4]	koff [5]	Kd [6]	koff [6]	kon [6]	Kd [7]	koff [7]	kon [7]	koff [8]	Kd [9]	koff [9]	further results
IAR044-038 (other, Trispecific fusion protein: VEGFA mini-Trap, hinge linker, anti-Ang2 VHH, linker, anti-VEGFC VHH) SDTGRPFVEMYSEIPEIIHMTEGRELVIPCRVTSPNITVTLKKFPLDTLIPDGKRIIWDSRKGFIISNATYKEIGLLTCEATVNGHLYKTNYLTHRQTNTIIDVVLSPSHGIELSVGEKLVLNCTARTELNVGIDFNWEYPSSKHQHKKLVNRDLKTQSGSEMKKFLSTLTIDGVTRSDQGLYTCAASSGLMTKKNSTFVRVHEKEPKSSPPCPPCPAPCGGGGGGGGGGEVQLLESGGGLVQPGGSLRLSCAASGFALDYYAIGWFRQAPGKGLEGVSCISSGEGSTYYADSVKGRFTISRDNSKNTVYLQMNSLRAEDTAVYYCATDSRGDDVACEGLRRNEYDYWGQGTLVTVSSGGGGGGGGGGEVQLVESGGGLVQPGGSLRLSCAASGSSFSPYAMGWYRQAPGKQRELVSATSEGGFTLYADSVKGRFTISRDNSKNTVYLQMNSLRAEDTAVYYCYMHWRGSDPENYWGQGTQVTVSS	0.668 nM	0.0003 s⁻¹	450000 M⁻¹ s⁻¹	≤ 0.92 nM		217000 M⁻¹ s⁻¹	0.475 nM	0.000283 s⁻¹	597000 M⁻¹ s⁻¹	≤ 0.0002 s⁻¹											
IAR044-040 (other, Trispecific fusion protein: VEGFA mini-Trap, hinge linker, anti-Ang2 VHH, linker, anti-VEGFC VHH) SDTGRPFVEMYSEIPEIIHMTEGRELVIPCRVTSPNITVTLKKFPLDTLIPDGKRIIWDSRKGFIISNATYKEIGLLTCEATVNGHLYKTNYLTHRQTNTIIDVVLSPSHGIELSVGEKLVLNCTARTELNVGIDFNWEYPSSKHQHKKLVNRDLKTQSGSEMKKFLSTLTIDGVTRSDQGLYTCAASSGLMTKKNSTFVRVHEKEKTHTCPPCPPCGGGGGGGGGGEVQLLESGGGLVQPGGSLRLSCAASGFALDYYAIGWFRQAPGKGLEGVSCISSGEGSTYYADSVKGRFTISRDNSKNTVYLQMNSLRAEDTAVYYCATDSRGDDVACEGLRRNEYDYWGQGTLVTVSSGGGGGGGGGGEVQLVESGGGLVQPGGSLRLSCAASGSSFSPYAMGWYRQAPGKQRELVSATSEGGFTLYADSVKGRFTISRDNSKNTVYLQMNSLRAEDTAVYYCYMHWRGSDPENYWGQGTQVTVSS	0.609 nM	0.000293 s⁻¹	481000 M⁻¹ s⁻¹	0.885 nM	0.000209 s⁻¹	236000 M⁻¹ s⁻¹	0.783 nM	0.00051 s⁻¹	652000 M⁻¹ s⁻¹												

Now those with a lower Kd [1], led by results:

Kd [1]	koff [1]	kon [1]	Kd [2]	koff [2]	kon [2]	Kd [3]	koff [3]	kon [3]	koff [4]	koff [5]	Kd [6]	koff [6]	kon [6]	Kd [7]	koff [7]	kon [7]	koff [8]	Kd [9]	koff [9]	Binder	further results
0.582 nM	0.000272 s⁻¹	468000 M⁻¹ s⁻¹	1.01 nM	0.000227 s⁻¹	225000 M⁻¹ s⁻¹	0.705 nM	0.000427 s⁻¹	606000 M⁻¹ s⁻¹												IAR044-039 (other, Trispecific fusion protein: VEGFA mini-Trap, hinge linker, anti-Ang2 VHH, linker, anti-VEGFC VHH) SDTGRPFVEMYSEIPEIIHMTEGRELVIPCRVTSPNITVTLKKFPLDTLIPDGKRIIWDSRKGFIISNATYKEIGLLTCEATVNGHLYKTNYLTHRQTNTIIDVVLSPSHGIELSVGEKLVLNCTARTELNVGIDFNWEYPSSKHQHKKLVNRDLKTQSGSEMKKFLSTLTIDGVTRSDQGLYTCAASSGLMTKKNSTFVRVHEKESKYGPPCPPCPPCGGGGGGGGGGEVQLLESGGGLVQPGGSLRLSCAASGFALDYYAIGWFRQAPGKGLEGVSCISSGEGSTYYADSVKGRFTISRDNSKNTVYLQMNSLRAEDTAVYYCATDSRGDDVACEGLRRNEYDYWGQGTLVTVSSGGGGGGGGGGEVQLVESGGGLVQPGGSLRLSCAASGSSFSPYAMGWYRQAPGKQRELVSATSEGGFTLYADSVKGRFTISRDNSKNTVYLQMNSLRAEDTAVYYCYMHWRGSDPENYWGQGTQVTVSS	
≤ 0.515 nM		389000 M⁻¹ s⁻¹	≤ 1.04 nM		193000 M⁻¹ s⁻¹	≤ 0.206 nM		973000 M⁻¹ s⁻¹	≤ 0.0002 s⁻¹	≤ 0.0002 s⁻¹	0.00932 nM	1.76e-05 s⁻¹	1.89e+06 M⁻¹ s⁻¹	< 0.234 nM	< 1e-05 s⁻¹	42800 M⁻¹ s⁻¹	≤ 0.0002 s⁻¹	0.151 nM	6.01e-05 s⁻¹	IAR044-030 (other, No Fc; also called anti-VEGFA/VEGFC/Ang2 multi-specific fusion protein) EVQLLESGGGLVQPGGSLRLSCAASGFALDYYAIGWFRQAPGKGLEGVSCISSGEGSTYYADSVKGRFTISRDNSKNTVYLQMNSLRAEDTAVYYCATDSRGDDVACEGLRRNEYDYWGQGTLVTVSSGGGGGGGGGGSDTGRPFVEMYSEIPEIIHMTEGRELVIPCRVTSPNITVTLKKFPLDTLIPDGKRIIWDSRKGFIISNATYKEIGLLTCEATVNGHLYKTNYLTHRQTNTIIDVVLSPSHGIELSVGEKLVLNCTARTELNVGIDFNWEYPSSKHQHKKLVNRDLKTQSGSEMKKFLSTLTIDGVTRSDQGLYTCAASSGLMTKKNSTFVRVHEKESKYGPPCPPCPPCGGGGGGGGGGEVQLVESGGGLVQPGGSLRLSCAASGSSFSPYAMGWYRQAPGKQRELVSATSEGGFTLYADSVKGRFTISRDNSKNTVYLQMNSLRAEDTAVYYCYMHWRGSDPENYWGQGTQVTVSS	kon [9]: 399000 M⁻¹ s⁻¹
≤ 0.517 nM		387000 M⁻¹ s⁻¹	≤ 1.01 nM		197000 M⁻¹ s⁻¹	≤ 0.22 nM		908000 M⁻¹ s⁻¹	≤ 0.0002 s⁻¹	≤ 0.0002 s⁻¹	0.012 nM	1.92e-05 s⁻¹	1.63e+06 M⁻¹ s⁻¹	< 0.276 nM	< 1e-05 s⁻¹	36200 M⁻¹ s⁻¹	≤ 0.0002 s⁻¹	0.203 nM	7.75e-05 s⁻¹	IAR044-032 (other, No Fc; also called anti-VEGFA/VEGFC/Ang2 multi-specific fusion protein) EVQLLESGGGLVQPGGSLRLSCAASGFALDYYAIGWFRQAPGKGLEGVSCISSGEGSTYYADSVKGRFTISRDNSKNTVYLQMNSLRAEDTAVYYCATDSRGDDVACEGLRRNEYDYWGQGTLVTVSSGGGGGGGGGGSDTGRPFVEMYSEIPEIIHMTEGRELVIPCRVTSPNITVTLKKFPLDTLIPDGKRIIWDSRKGFIISNATYKEIGLLTCEATVNGHLYKTNYLTHRQTNTIIDVVLSPSHGIELSVGEKLVLNCTARTELNVGIDFNWEYPSSKHQHKKLVNRDLKTQSGSEMKKFLSTLTIDGVTRSDQGLYTCAASSGLMTKKNSTFVRVHEKEKTHTCPPCPPCGGGGGGGGGGEVQLVESGGGLVQPGGSLRLSCAASGSSFSPYAMGWYRQAPGKQRELVSATSEGGFTLYADSVKGRFTISRDNSKNTVYLQMNSLRAEDTAVYYCYMHWRGSDPENYWGQGTQVTVSS	kon [9]: 382000 M⁻¹ s⁻¹

Source: patent publication EP4628512A1 (Innovent Biologics (Suzhou) Co., Ltd., dated 2025)
